# Like-named read-outs stand apart in the source and are kept apart here.
# T1: human IL6R (R and D systems cat #227-SR/CF) (human, UniProt P08887 20-358)
# T1 chain: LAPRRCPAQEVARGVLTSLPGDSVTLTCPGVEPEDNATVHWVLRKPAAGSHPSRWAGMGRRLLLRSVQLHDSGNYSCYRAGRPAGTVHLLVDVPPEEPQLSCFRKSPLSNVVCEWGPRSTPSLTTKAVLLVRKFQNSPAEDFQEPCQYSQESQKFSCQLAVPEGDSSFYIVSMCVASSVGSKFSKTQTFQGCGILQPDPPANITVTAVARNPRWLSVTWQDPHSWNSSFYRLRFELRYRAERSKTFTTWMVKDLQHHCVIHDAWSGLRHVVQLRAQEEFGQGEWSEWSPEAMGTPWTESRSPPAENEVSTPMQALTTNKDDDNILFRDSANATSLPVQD
# B1: Av1 antibody (antibody, V domains shown)
# VH: QVQLQESGPGLVRPSQTLSLTCTVSGYSITSDHAWSWVRQPPGRGLEWIGYISYSGITTYNPSLKSRVTISRDNSKNTLYLQMNSLRAEDTAVYYCARSLARTTAMDYWGQGSLVTVSS
# VL: DIQMTQSPSSLSASVGDRVTITCRASQDISSYLNWYQQKPGKAPKLLIYYTSRLHSGVPSRFSGSGSGTDFTFTISSLQPEDIATYYCQQGNTLPYTFGQGTKVEIKR
# B2: AV1-based activatable anti-IL6R antibody with Generation 1 mask Peptide 1 and substrate MMP/BV728 (antibody, V domains shown)
# VH: B1 VH
# VL: YRSCNWNYVSIFLDCDIQMTQSPSSLSASVGDRVTITCRASQDISSYLNWYQQKPGKAPKLLIYYTSRLHSGVPSRFSGSGSGTDFTFTISSLQPEDIATYYCQQGNTLPYTFGQGTKVEIKR
# Assays:
# [1] = target: T1, human IL6R (R and D systems cat …); assay: ELISA; apparent, printed beside curve
# [2] = target: T1, human IL6R (R and D systems cat …); assay: ELISA; apparent, printed beside curve
Binder,Kd [1] [nM],Kd [2] [nM]
B1,2.2,
B2,,19.2
